Laboratory results published in article PMC11503464, “Copper-61 is an advantageous alternative to gallium-68 for PET imaging of somatostatin receptor-expressing tumors: a head-to-head comparative preclinical study” (Frontiers in Nuclear Medicine, 2024).

Experiments:
[1] = in vivo; parameters: species or system mice; conditions: BALB/c, mouse, total radioactivity
Method: [^64Cu]CuCl2 was provided by the University Hospital Tübingen, Germany. […] OLINDA/EXM 1.0 was used to integrate the fitted time-activity curves and to estimate the organ and effective doses using the whole-body adult female model. For all the calculations, the assumption was made that the mouse biodistribution, determined as the %IA/organ, was the same as the human biodistribution. The dosimetry estimates were performed as previously described ([14]).

[2] = in vivo; conditions: female, athymic nude-Foxn1^nu/Foxn1^+, mouse, 200 pmol, total radioactivity

In the case of `C[C@@H](O)[C@@H]1NC(=O)[C@H](CCCCN)NC(=O)[C@@H](Cc2c[nH]c3ccccc23)NC(=O)[C@H](Cc2ccc(O)cc2)NC(=O)[C@@H](NC(=O)[C@@H](Cc2ccccc2)NC(=O)CCC(C(=O)O)N2CCN(CC(=O)O)CCN(CC(=O)O)CC2)CSSC[C@@H](C(=O)N[C@H](CO)[C@@H](C)O)NC1=O` (stereo partly shown) [[64Cu]Cu-NODAGA-TOC, metal not drawn], the tissue uptake at 12 h ([1]; Adrenal uptake) is reported as 0.32 ± 0.2 %ID/g, the tissue uptake at 24 h ([1]; Adrenal uptake) is reported as 0.18 ± 0.1 %ID/g and the tissue uptake at 12 h ([1]; Femur uptake) is reported as 0.11 ± 0.04 %ID/g. For the same compound, the tissue uptake at 12 h ([1]; Intestine uptake) was 0.57 ± 0.07 %ID/g, the tissue uptake at 24 h ([1]; Intestine uptake) was 0.31 ± 0.05 %ID/g and the tissue uptake at 12 h ([1]; Kidneys uptake) was 2.46 ± 0.85 %ID/g. It also gave a tissue uptake at 24 h ([1]; Kidneys uptake) of 0.66 ± 0.15 %ID/g, a tissue uptake at 12 h ([1]; Liver uptake) of 0.37 ± 0.09 %ID/g and a tissue uptake at 24 h ([1]; Liver uptake) of 0.26 ± 0.02 %ID/g. For the same compound, the tissue uptake at 12 h ([1]; Lung uptake) was 0.51 ± 0.12 %ID/g, the tissue uptake at 24 h ([1]; Lung uptake) was 0.27 ± 0.09 %ID/g and the tissue uptake at 12 h ([1]; Pancreas uptake) was 0.14 ± 0.03 %ID/g. It also gave a tissue uptake at 12 h ([1]; Pituitary uptake) of 0.48 ± 0.25 %ID/g, a tissue uptake at 24 h ([1]; Pituitary uptake) of 0.43 ± 0.29 %ID/g and a tissue uptake at 12 h ([1]; Stomach uptake) of 0.75 ± 0.19 %ID/g. The tissue uptake at 24 h ([1]; Stomach uptake) was 0.26 ± 0.04 %ID/g.
In the case of `C[C@@H](O)[C@@H]1NC(=O)[C@H](CCCCN)NC(=O)[C@@H](Cc2c[nH]c3ccccc23)NC(=O)[C@H](Cc2ccc(O)cc2)NC(=O)[C@@H](NC(=O)[C@@H](Cc2ccccc2)NC(=O)CN2CCN(CC(=O)O)CCN(CC(=O)O)CCN(CC(=O)O)CC2)CSSC[C@@H](C(=O)N[C@H](CO)[C@@H](C)O)NC1=O` [[^61Cu]Cu-DOTA-TOC, metal not drawn], the tissue uptake at 1 h ([2]; Adrenal uptake) is reported as 2.05 ± 0.58 %ID/g, the tissue uptake at 4 h ([2]; Adrenal uptake) is reported as 1.14 ± 0.5 %ID/g and the tissue uptake at 1 h ([2]; Blood uptake) is reported as 0.38 ± 0.09 %ID/g. The tissue uptake at 4 h ([2]; Blood uptake) was 0.21 ± 0.04 %ID/g, the tissue uptake at 1 h ([2]; Bone uptake) was 0.6 ± 0.16 %ID/g and the tissue uptake at 4 h ([2]; Bone uptake) was 0.5 ± 0.19 %ID/g. It also gave a tissue uptake at 4 h ([2]; Heart uptake) of 0.49 ± 0.06 %ID/g, a tissue uptake at 4 h ([2]; Intestine uptake) of 2.06 ± 0.92 %ID/g and a tissue uptake at 1 h ([2]; Kidneys uptake) of 5.32 ± 0.58 %ID/g. It also gave a tissue uptake at 4 h ([2]; Kidneys uptake) of 2.33 ± 0.39 %ID/g, a tissue uptake at 4 h ([2]; Liver uptake) of 2.52 ± 0.56 %ID/g and a tissue uptake at 1 h ([2]; Lung uptake) of 1.96 ± 0.16 %ID/g. The tissue uptake at 4 h ([2]; Lung uptake) was 1.25 ± 0.08 %ID/g, the tissue uptake at 4 h ([2]; Muscle uptake) was 0.16 ± 0.08 %ID/g and the tissue uptake at 1 h ([2]; Pancreas uptake) was 4.29 ± 0.5 %ID/g. It also gave a tissue uptake at 4 h ([2]; Pancreas uptake) of 0.68 ± 0.07 %ID/g, a tissue uptake at 1 h ([2]; Pituitary uptake) of 3 ± 1.32 %ID/g and a tissue uptake at 4 h ([2]; Pituitary uptake) of 2.43 ± 1.27 %ID/g. For the same compound, the tissue uptake at 1 h ([2]; SST2-tumor uptake) was 7.44 ± 2.33 %ID/g, the tissue uptake at 4 h ([2]; SST2-tumor uptake) was 6.85 ± 2.48 %ID/g and the tissue uptake at 1 h ([2]; Spleen uptake) was 0.55 ± 0.08 %ID/g. The tissue uptake at 4 h ([2]; Spleen uptake) was 0.37 ± 0.09 %ID/g, the tissue uptake at 1 h ([2]; Stomach uptake) was 4.34 ± 0.5 %ID/g and the tissue uptake at 4 h ([2]; Stomach uptake) was 2.09 ± 0.5 %ID/g.
